Data reported in patent publication US11419948B2, “Functionalized microgels with fibrin binding elements” (Georgia Tech Research Corporation, priority 2013, dated 2022).

Columns and labels:
fibrin = target: T1, fibrin (Homo sapiens, UniProt P02671+P02675+P02679); assay: Interferometry (Fortébio Blitz) binding of sdFv-microgels to fibrin layer; conditions: several concentrations
T1 sequence (P02671 36-866 limits assumed): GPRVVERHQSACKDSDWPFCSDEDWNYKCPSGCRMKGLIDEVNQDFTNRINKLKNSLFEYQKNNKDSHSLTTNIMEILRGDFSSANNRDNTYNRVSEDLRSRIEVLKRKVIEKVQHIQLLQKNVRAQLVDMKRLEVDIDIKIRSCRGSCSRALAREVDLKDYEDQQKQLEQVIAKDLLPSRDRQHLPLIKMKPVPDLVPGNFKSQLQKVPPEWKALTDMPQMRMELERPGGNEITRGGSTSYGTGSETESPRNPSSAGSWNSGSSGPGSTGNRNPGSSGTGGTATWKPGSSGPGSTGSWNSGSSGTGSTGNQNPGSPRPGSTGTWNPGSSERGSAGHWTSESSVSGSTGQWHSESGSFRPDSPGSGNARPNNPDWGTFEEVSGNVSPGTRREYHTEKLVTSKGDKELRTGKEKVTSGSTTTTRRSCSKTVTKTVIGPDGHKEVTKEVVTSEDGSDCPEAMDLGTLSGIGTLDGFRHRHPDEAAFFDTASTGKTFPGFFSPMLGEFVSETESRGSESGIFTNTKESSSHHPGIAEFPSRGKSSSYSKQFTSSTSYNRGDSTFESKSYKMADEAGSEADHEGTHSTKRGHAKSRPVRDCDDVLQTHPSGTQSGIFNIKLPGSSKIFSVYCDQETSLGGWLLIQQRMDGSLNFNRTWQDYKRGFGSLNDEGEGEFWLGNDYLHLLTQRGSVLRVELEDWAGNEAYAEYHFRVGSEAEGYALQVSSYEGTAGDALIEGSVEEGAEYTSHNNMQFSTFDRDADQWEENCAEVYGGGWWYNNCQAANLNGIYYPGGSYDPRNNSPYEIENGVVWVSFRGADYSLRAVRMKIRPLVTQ
T1 sequence (P02675 45-491 limits assumed): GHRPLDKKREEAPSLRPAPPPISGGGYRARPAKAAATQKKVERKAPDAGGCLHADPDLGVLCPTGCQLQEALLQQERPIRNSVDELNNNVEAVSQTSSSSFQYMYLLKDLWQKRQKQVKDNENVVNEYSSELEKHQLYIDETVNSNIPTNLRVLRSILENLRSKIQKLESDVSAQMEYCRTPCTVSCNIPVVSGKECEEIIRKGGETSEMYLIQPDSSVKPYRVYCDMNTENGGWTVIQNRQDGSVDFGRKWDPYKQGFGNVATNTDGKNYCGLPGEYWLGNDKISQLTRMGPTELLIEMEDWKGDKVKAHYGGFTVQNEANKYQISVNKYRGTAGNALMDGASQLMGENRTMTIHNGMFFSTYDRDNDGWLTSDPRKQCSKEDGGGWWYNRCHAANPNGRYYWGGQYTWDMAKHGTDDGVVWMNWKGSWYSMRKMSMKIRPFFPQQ
T1 sequence (P02679 27-453): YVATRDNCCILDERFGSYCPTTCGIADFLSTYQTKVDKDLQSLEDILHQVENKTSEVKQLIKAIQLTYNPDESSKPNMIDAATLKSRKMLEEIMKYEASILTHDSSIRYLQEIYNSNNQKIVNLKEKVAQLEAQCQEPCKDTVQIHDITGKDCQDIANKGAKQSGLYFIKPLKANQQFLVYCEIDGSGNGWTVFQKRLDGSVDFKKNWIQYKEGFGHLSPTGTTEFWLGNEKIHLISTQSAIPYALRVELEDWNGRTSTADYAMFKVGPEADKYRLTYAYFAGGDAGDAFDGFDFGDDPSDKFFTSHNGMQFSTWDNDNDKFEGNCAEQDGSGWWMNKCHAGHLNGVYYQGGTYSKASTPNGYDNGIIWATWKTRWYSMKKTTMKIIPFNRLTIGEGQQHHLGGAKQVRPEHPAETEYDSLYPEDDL
Protocol: Ultralow crosslinked (ULC) microgels (microgels) with highly deformable, dendritic architecture were prepared using standard precipitation polymerization techniques previously described, Clemetson, K. J., Thrombosis Research, 129:220-224 (2012). A 95% pNIPAm/5% AAc composition (poly(N-isopropylacrylamide-co-acrylic acid) was utilized for microgel synthesis which results in microscaffolds ˜1-μm diameter in the swollen state. Co-polymerization with acrylic acid was utilized to allow for carboxylic acid chemoligation sites for sdFv attachment, Fries, et al., British Journal of Anesthesia, 105:116-121 (2010); Granville-Chapman, et al., Injury, 42:447-459 (2011). Following synthesis, microgels were purified using ultracentrifugation and conjugated to fibrin specific sdFvs using standard EDC/NHS chemistry. For confocal fluorescence microscopy experiments, sdFvs were also labeled with maleimide-Alexa Fluor-488 following conjugation to the microgels. To determine basic microgels properties, the particles were characterized using dynamic light scattering to determine the hydrodynamic radius and atomic and force microscopy imaging to characterize morphology. Finally, to ensure that microgels coupled to fibrin-specific sdFvs retained fibrin-binding capabilities, binding of sdFv-microgels to fibrin was determined through interferometry analysis utilizing the Fortébio Blitz system. […]

human plasma components [1] = assay: Qualitative human plasma assay (protein A pull down, polyacrylamide gel); format: binding; conditions: 30 minutes room temperature
Protocol: H6 binding was determined through both qualitative and quantitative human plasma assays. The qualitative assay involved incubating either H6, the non-binding negative control, S11, or saline with human plasma at room temperature for 30 minutes. The plasma mixtures were subsequently incubated with protein A beads with the intent to pull down all IgG isotypes (including H6 and S11).
The eluants from the protein A pull down experiment were run on a polyacrylamide gradient gel to visualize any band shifts present in the H6-plasma solution that would indicate a binding interaction not present in the S11-plasma or saline-plasma solutions.

human plasma components [2] = assay: Quantitative human plasma binding ELISA; conditions: five 10-fold plasma dilutions
Protocol: The quantitative assay involved coating a 96-well high-binding plate with five different 10-fold plasma dilutions. H6, S11, or a positive-control anti-fibrinogen antibody were incubated in these wells to allow for binding with plasma components to occur. All wells were set-up in triplicate. After washing away unbound nanobody or antibody and treating with appropriate secondary antibodies and ELISA reagents, the amount of H6, S11 or anti-fibrinogen antibody remaining in each well was measured spectrophotomerically in a plate reader. All readings were normalized to wells in which PBS was incubated with plasma.

Molecule	binding of sdFv-microgels to the fibrin layer (fibrin)	non-specific binding to human plasma components (band shifts) (human plasma components [1])	binding to plasma-coated plate (human plasma components [2])
PLPs: ultra-low crosslinked pNIPAm-AAc microgels conjugated to fibrin-specific sdFv H6 (conjugate) VH: QVQLLESGGGLVQPGGSLRLSCAASGDRFTHNDMGWVRQAPGKGLEWVSTIPTTDGSTYYADSVKGRFTISRDNSKSTLYLQMNSLRAEDTAVYYCATGYMWKAPAYVKYWGQGTLVTVSSAAAEQKLISEEDLNSAAHYTDIG	increased binding to the fibrin layer with increasing concentrations		
H6: fibrin-specific human sdFv clone from phage biopanning, SEQ ID NO: 1 (protein) VHH: QVQLLESGGGLVQPGGSLRLSCAASGDRFTHNDMGWVRQAPGKGLEWVSTIPTTDGSTYYADSVKGRFTISRDNSKSTLYLQMNSLRAEDTAVYYCATGYMWKAPAYVKYWGQGTLVTVSSAAAEQKLISEEDLNSAAHYTDIG		did not non-specifically bind	negligible binding
